Measured values: doi:10.1101/2023.06.15.545202

How the values were obtained:
[1] = target: PAN domain of SpG-type LecRLK-2 (amino acids 322-400), secreted His-Avi-sfGFP fusion (Salix purpurea); assay: SEC
[2] = target: PAN domain of SpG-type LecRLK-2R (amino acids 322-400), secreted His-Avi-sfGFP fusion (Salix purpurea); assay: SEC

| Substance | percent in higher-order complex [1] [%] | percent monomeric [1] [%] | percent monomeric [2] [%] |
| --- | --- | --- | --- |
| PAN domain of SpG-type LecRLK-2 (amino acids 322-400), secreted His-Avi-sfGFP fusion (domain or fragment) | 48.2 | 51.8 | – |
| PAN domain of SpG-type LecRLK-2R (amino acids 322-400), secreted His-Avi-sfGFP fusion (domain or fragment) | – | – | 26.4 |
